Results from US20250042956A1 (University of California, published 2025).

T1: AT4G35510.1 TRBIP1 (Arabidopsis thaliana)
T1 construct: Endogenous protein found by mass spectrometry
T1 chain: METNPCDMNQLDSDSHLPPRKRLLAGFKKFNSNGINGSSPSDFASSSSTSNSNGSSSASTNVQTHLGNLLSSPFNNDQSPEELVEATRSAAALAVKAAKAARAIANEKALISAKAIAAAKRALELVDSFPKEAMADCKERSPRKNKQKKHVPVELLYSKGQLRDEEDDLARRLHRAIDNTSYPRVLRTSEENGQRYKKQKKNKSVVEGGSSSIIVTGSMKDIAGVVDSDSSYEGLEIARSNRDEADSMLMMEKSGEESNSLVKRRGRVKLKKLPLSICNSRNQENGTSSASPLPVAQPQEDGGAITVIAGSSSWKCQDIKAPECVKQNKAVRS

T2: AT2G17540.2 TRBIP2 (Arabidopsis thaliana)
T2 construct: Endogenous protein found by mass spectrometry
T2 chain: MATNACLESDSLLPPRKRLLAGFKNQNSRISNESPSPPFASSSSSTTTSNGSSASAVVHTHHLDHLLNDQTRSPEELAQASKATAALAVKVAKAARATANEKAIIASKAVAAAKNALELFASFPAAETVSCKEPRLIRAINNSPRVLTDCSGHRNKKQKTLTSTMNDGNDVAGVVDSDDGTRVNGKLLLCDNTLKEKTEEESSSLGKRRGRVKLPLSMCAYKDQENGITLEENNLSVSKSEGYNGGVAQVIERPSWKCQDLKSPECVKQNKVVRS

T3: PIAL2 (yeast two hybrid GAL4 fusion) (Arabidopsis thaliana, UniProt F4JYG0 1-760)
T3 construct: cDNA cloned into Gateway Y2H vectors; not shown: GAL4-AD or GAL4-BD (pGADT7-GW / pGBKT7-GW)
T3 sequence: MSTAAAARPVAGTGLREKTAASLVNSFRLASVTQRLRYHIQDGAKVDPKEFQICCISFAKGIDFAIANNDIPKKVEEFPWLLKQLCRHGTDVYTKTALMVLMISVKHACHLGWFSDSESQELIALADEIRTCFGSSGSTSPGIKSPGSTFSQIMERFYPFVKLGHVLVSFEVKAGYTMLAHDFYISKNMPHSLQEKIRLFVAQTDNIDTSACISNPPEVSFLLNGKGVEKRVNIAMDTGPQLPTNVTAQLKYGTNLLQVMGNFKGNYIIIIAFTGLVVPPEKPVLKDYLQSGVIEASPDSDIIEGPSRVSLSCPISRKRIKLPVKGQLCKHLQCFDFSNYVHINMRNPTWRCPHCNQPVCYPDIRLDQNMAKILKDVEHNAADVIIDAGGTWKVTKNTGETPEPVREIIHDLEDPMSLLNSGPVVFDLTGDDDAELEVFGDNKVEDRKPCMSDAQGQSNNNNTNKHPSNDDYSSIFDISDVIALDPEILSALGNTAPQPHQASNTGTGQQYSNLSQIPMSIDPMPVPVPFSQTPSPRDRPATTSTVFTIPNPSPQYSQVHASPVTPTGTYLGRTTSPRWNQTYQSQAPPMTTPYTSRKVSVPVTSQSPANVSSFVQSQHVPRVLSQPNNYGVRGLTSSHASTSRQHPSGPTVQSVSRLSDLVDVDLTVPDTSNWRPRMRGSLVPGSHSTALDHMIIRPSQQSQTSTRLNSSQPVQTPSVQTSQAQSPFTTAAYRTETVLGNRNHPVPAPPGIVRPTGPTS

B1: FLAG-TRB3 (other, not shown: small tags and cut ends)
chain: MGAPKLKWTPEEETALKAGVLKHGTGKWRTILSDPVYSTILKSRSNVDLKDKWRNISVTALWGSRKKAKLALKRTPLSGSRQDDNATAITIVSLANGDVGGQQIDAPSPPAGSCEPPRPSTSVDKIILEAITSLKRPFGPDGKSILMYIEENFKMQPDMKRLVTSRLKYLTNVGTLVKKKHKYRISQNYMAEGEGQRSPQLLLEGNKENTPKPEENGVKNLTKSQVGGEVMIMGMTEKEAAAAAARAVAEAEFAMAEAEEAAREADKAEAEAEAAHIFAKAAMKAVKYRMHSQTR
notes: FLAG-tagged TRB3 from its native promoter; tag position under the label FLAG-TRB3 not certain; also called TRB3-FLAG; TRB-FLAG
B2: MORC6 (yeast two hybrid GAL4 fusion) (other, Arabidopsis thaliana, UniProt Q56Y74 1-663, looked up)
chain: MSHDRSVNVSHDAVIAKPERGTMLQSFSPRSHGSKGYSLPQDSEENRGSVGQSAGQSSTSVVDQVRSPADDAGVTSSSTICPAPVCRQFWKAGSYNDELSSKSQQPNGKNYLHVHPMFLHSNATSHKWAFGAVAELLDNAVDEIQNGATFVIVDKTTNPRDGATALLIQDDGGGMDPQAMRHCMGFGFSDKKSDSAIGRYGNGFKTSTMRLGADVIVFSRHSKNQTLTQSIGLLSYTYLTRTGHDRIVVPILDYEFNASAGEFKTLQDREHFISSLSILLEWSPFSTEAELLQQFDDVGPHGTKVIIYNMWLNSDAKLELDFDSVAEDILIEGSIKKTGSKIVNDHIASRFSYSLRVYLSILYLRIPETFKIILRGKVVEHHNVADDLMHPQYILYKPQAAGSEEALVVTTIGFLKEAPKVNLHGFCVYHKNRLIMPFWQVINYSSSRGRGVVGVLEANFVEPTHNKQDFEKTVLLQKLENRLKEMTVEYWSCHCVLIGYQVNKKPRLQIPQKVQPAGRQALSPPPGFQAVFPQGNTTSLPRVSTQPVLLEKRKEHPDSVASAALKRKVGNDDFTVPGHIRVEQFIHGSASQSQDIETVKLMEENKKLRAKCLDRKVRSQNLEVKAMNLRSELENYKSEYERLMVELQALDLVKDEHRRNVNT
notes: cDNA cloned into Gateway Y2H vectors; not shown: GAL4-AD or GAL4-BD (pGADT7-GW / pGBKT7-GW)
B3: MOM1 CMM2 domain (yeast two hybrid GAL4 fusion) (other, Arabidopsis thaliana, UniProt Q9M658 1660-1860, looked up)
chain: TSVAEPHISGSDACEMEISEPGPQVERSTFANLFHEGGVEHSAGVTALVPSLLNNGTEQIAVQPVPQIPFPVFNDPFLHELEKLRRESENSKKTFEEKKSILKAELERKMAEVQAEFRRKFHEVEAEHNTRTTKIEKDKNLVIMNKLLANAFLSKCTDKKVSPSGAPRGKIQQLAQRAAQVSALRNYIAPQQLQASSFPAP
notes: range 1660-1860; also called MOM1 CMM2 domain (aa1660-aa1860); not shown: GAL4-AD or GAL4-BD (pGADT7-GW / pGBKT7-GW)

Experiments:
AT4G35510.1 TRBIP1 [1] = molecular target: T1, AT4G35510.1 TRBIP1; assay: IP-MS rep 1
Experimental: (§1) The method of IP-MS used in this Example has been described in a recent paper (see e.g., Xue, Nat. Comm., 2021). Ten grams of unopened floral buds from Col-0 wild type and FLAG-tag transgenic plants, including PHD1, MOM1, AIPP3, MOM2, MORC6, PIAL2, TRB1, TRB2, TRB3, JMJ14, HD2A, HD2B, and ELF7 were collected and ground into fine powder with liquid nitrogen. These samples were resuspended with 25 mL IP buffer and homogenized until lump-free by dounce homogenizer. The lysate was filtered through Miracloth and incubated with 250 μL anti-FLAG M2 magnetic beads (Sigma) at 4° C. for 2 hours. The magnetic beads were washed with IP buffer and eluted with TBS containing 250 μg/mL 3×FLAG peptides. The eluted proteins were precipitated with trichloroacetic acid (Sigma) and subject to MS analyses as described previously (see e.g., Xue, Nat. Comm., 2021).

AT2G17540.2 TRBIP2 [2] = molecular target: T2, AT2G17540.2 TRBIP2; assay: IP-MS rep 1
Experimental: as §1

AT4G35510.1 TRBIP1 [3] = molecular target: T1, AT4G35510.1 TRBIP1; assay: IP-MS rep 2
Experimental: as §1

AT2G17540.2 TRBIP2 [4] = molecular target: T2, AT2G17540.2 TRBIP2; assay: IP-MS rep 2
Experimental: as §1

AT4G35510.1 TRBIP1 [5] = molecular target: T1, AT4G35510.1 TRBIP1; assay: X-link IP-MS
AT2G17540.2 TRBIP2 [6] = molecular target: T2, AT2G17540.2 TRBIP2; assay: X-link IP-MS
[7] = molecular target: T3, PIAL2 (yeast two hybrid GAL4 fusion); assay: yeast two hybrid
Description: The cDNA sequences of PIAL1, PIAL2, MOM2, MORC6, and MOM1 CMM2 domain (aa1660-aa1860, (see e.g., Han, Plant Cell Rep., 2016)) were first cloned into gateway entry vectors followed by LR reaction with pGBKT7-GW (Addgene 61703) and pGADT7-GW (Addgene 61702) destination vectors. Pairs of plasmid DNA for the desired protein interaction to be tested were co-transformed into the yeast strain AH109. Combinations of the empty pGBKT7-GW or pGADT7-GW vectors and the plasmids of desired proteins were used for transformation of yeast cells to test for self-activation. Transformed yeast cells were plated on synthetic dropout medium without Trp and Leu (SD-TL) and incubated for 2-3 days to allow for the growth of positive colonies carrying both plasmids. Three yeast colonies of each tested protein interaction pairs were picked and mixed in 150 μl 1×TE solution, and 3 μl of the 1×TE solution with the yeast cells were blotted on synthetic dropout medium without Trp, Leu, and His (SD-TLH) and with 5 mM 3-amino-1,2,4-triazole (3AT) to inhibit background growth. Growth of yeast on SD-TLH with 5 mM 3AT medium after 2-3 days of incubation indicates the interaction between the GAL4-AD fusion protein and the GAL4-BD fusion protein.

IP-MS count (AT4G35510.1 TRBIP1 [1]) | IP-MS count (AT2G17540.2 TRBIP2 [2]) | IP-MS count (AT4G35510.1 TRBIP1 [3]) | IP-MS count (AT2G17540.2 TRBIP2 [4]) | IP-MS count (AT4G35510.1 TRBIP1 [5]) | IP-MS count (AT2G17540.2 TRBIP2 [6]) | binding result [7] | Binder
24 | 16 | 38 | 20 | 17 | 3 | – | B1
– | – | – | – | – | – | binds | B2
– | – | – | – | – | – | binds | B3
